Data reported in paper PMC7588232, “Molecular mechanism for direct actin force-sensing by α-catenin” (eLife, 2020).
Blank lines part the entries; values can stand above or below the binder they belong to.

Target: F-actin (filamentous actin), unlabeled, from chicken skeletal muscle (chicken, UniProt P68139 1-377)
Assay: cryo-EM structure; 0.6 uM F-actin in KMEI applied to the grid, then 10 uM metavinculin ABD or 20 uM α-catenin ABD in KMEI, 25 °C; helical reconstruction (IHRSR, RELION 3.0)
Conditions: both partners purified

- stoichiometry N: 1
B1: H. sapiens α-catenin ABD (αE-catenin 664-906), not Halo-tagged (domain or fragment)
chain: IAGQSARAIMAQLPQEQKAKIAEQVASFQEEKSKLDAEVSKWDDSGNDIIVLAKQMCMIMMEMTDFTRGKGPLKNTSDVISAAKKIAEAGSRMDKLGRTIADHCPDSACKQDLLAYLQRIALYCHQLNICSKVKAEVQNLGGELVVSGVDSAMSLIQAAKNLMNAVVQTVKASYVASTKYQKSQGMASLNLPAVSWKMKAPEKKPLVKREKQDETQTKIKRASQKKHVNPVQALSEFKAMDSI
notes: residues 699-871 modelled in the map; Form used for cryo-EM; source: E. coli Rosetta2(DE3), purified (Ni-NTA, TEV cleavage, HiTrapQ, Superdex 200; no glycerol); not shown: His6, N-terminal, cleaved; Strep-tag, N-terminal, cleaved

- stoichiometry N: 1
B2: H. sapiens metavinculin ABD (879-1134), not Halo-tagged (domain or fragment)
chain: EEKDEEFPEQKAGEVINQPMMMAARQLHDEARKWSSKPGIPAAEVGIGVVAEADAADAAGFPVPPDMEDDYEPELLLMPSNQPVNQPILAAAQSLHREATKWSSKGNDIIAAAKRMALLMAEMSRLVRGGSGTKRALIQCAKDIAKASDEVTRLAKEVAKQCTDKRIRTNLLQVCERIPTISTQLKILSTVKATMLGRTNISDEESEQATEMLVHNAQNLMQSVKETVREAEAASIKIRTDAGFTLRWVRKTPWYQ
notes: residues 981-1131 modelled in the map; Form used for cryo-EM; source: E. coli Rosetta2(DE3), purified (Ni-NTA, TEV cleavage, HiTrapQ, Superdex 200; no glycerol); not shown: His6, N-terminal, cleaved; Strep-tag, N-terminal, cleaved
